Data taken from patent US20220259593A1, “CONTROL OF MAMMALIAN GENE DOSAGE USING CRISPR” (The Regents of the University of California, priority 2019, published 2022).
Where a chain is given by its changes, count along the chain named.

B1: cr363 (nucleic acid)
guide: GTTTAAGAGCTAAGCTGGAAACAGCATAGCAAGTTTAAATAAGGCTAGTCCGTTATCAATTCGAAAGAATGGCACCGAGTCGGTGCT
modifications: listed as DNA, chemistry not fully specified
B2: cr534 (nucleic acid)
guide: B1 guide with C45T, G48A, T60C, C62T, G67A, A69G, G72A, C86T
modifications: listed as DNA, chemistry not fully specified
B3: cr156 (nucleic acid)
guide: B1 guide with T60C, C62A, G67T, A69G
modifications: listed as DNA, chemistry not fully specified
B4: cr578 (nucleic acid)
guide: B1 guide with A31G, T60C, C62T, A65T, G67A, A69G
modifications: listed as DNA, chemistry not fully specified
B5: cr340 (nucleic acid)
guide: B1 guide with T60C, C62G, G67A, A69G
modifications: listed as DNA, chemistry not fully specified
B6: cr855 (nucleic acid)
guide: B1 guide with T46C, A55C, T60C, C62T, A65C, G67A, A69G
modifications: listed as DNA, chemistry not fully specified
B7: cr346 (nucleic acid)
guide: B1 guide with A59C, T60A, C62T, G67A, A69T, T70G, G72T, C86A
modifications: listed as DNA, chemistry not fully specified
B8: cr923 (nucleic acid)
guide: B1 guide with T60C, C62T, G67A, A69G, G72A, A74C, T84G, C86T
modifications: listed as DNA, chemistry not fully specified
B9: cr839 (nucleic acid)
guide: B1 guide with T60C, C62T, A65G, G67A, A69G
modifications: listed as DNA, chemistry not fully specified
B10: cr671 (nucleic acid)
guide: B1 guide with T60C, C62T, G67A, A68G, A69G
modifications: listed as DNA, chemistry not fully specified
B11: cr145 (nucleic acid)
guide: B1 guide with T60C, C62T, A65T, G67A, A69G
modifications: listed as DNA, chemistry not fully specified
B12: cr947 (nucleic acid)
guide: B1 guide with A19G, T60C, C62T, G67A, A69G
modifications: listed as DNA, chemistry not fully specified
B13: cr353 (nucleic acid)
guide: B1 guide with T60C, C62A, G67A, A69G
modifications: listed as DNA, chemistry not fully specified
B14: cr636 (nucleic acid)
guide: B1 guide with T60C, C62T, A64G, A65T, G67A, A69G
modifications: listed as DNA, chemistry not fully specified
B15: cr774 (nucleic acid)
guide: B1 guide with A20C, T60C, C62T, G67A, A69G
modifications: listed as DNA, chemistry not fully specified
B16: cr713 (nucleic acid)
guide: B1 guide with T60C, C62A, A65G, G67T, A69G
modifications: listed as DNA, chemistry not fully specified
B17: cr653 (nucleic acid)
guide: B1 guide with T60C, C62T, G67A, A69G, C76A, G82T
modifications: listed as DNA, chemistry not fully specified
B18: cr489 (nucleic acid)
guide: B1 guide with T60C, C62T, A65G, G67A, A69G, C73G, G85C
modifications: listed as DNA, chemistry not fully specified
B19: cr604 (nucleic acid)
guide: B1 guide with T46A, T60C, C62T, A65C, G67A, A69G
modifications: listed as DNA, chemistry not fully specified
B20: cr670 (nucleic acid)
guide: B1 guide with T60C, C62T, G67A, A69G, T70G
modifications: listed as DNA, chemistry not fully specified
B21: cr392 (nucleic acid)
guide: B1 guide with A32T, T60C, C62T, A65T, G67A, A69G
modifications: listed as DNA, chemistry not fully specified
B22: cr956 (nucleic acid)
guide: B1 guide with T46A, T60C, C62T, G67A, A69G
modifications: listed as DNA, chemistry not fully specified
B23: cr973 (nucleic acid)
guide: B1 guide with T60C, C62T, G63A, G67A, A69G
modifications: listed as DNA, chemistry not fully specified
B24: cr666 (nucleic acid)
guide: B1 guide with C45T, G48A, T60C, C62T, G67A, A69G, C73A, A74G, T84C, G85T
modifications: listed as DNA, chemistry not fully specified
B25: cr789 (nucleic acid)
guide: B1 guide with T60C, C62T, G67A, A69G, G72C, C86G
modifications: listed as DNA, chemistry not fully specified
B26: cr321 (nucleic acid)
guide: B1 guide with A31C, T60C, C62T, G67A, A69G
modifications: listed as DNA, chemistry not fully specified
B27: cr446 (nucleic acid)
guide: B1 guide with C45T, G48A, A59T, T60C, C62T, G67A, A69G, T70A, C73G, G85C
modifications: listed as DNA, chemistry not fully specified
B28: cr609 (nucleic acid)
guide: B1 guide with A32T, T60C, C62T, G63A, G67A, A69G, G79A
modifications: listed as DNA, chemistry not fully specified
B29: cr722 (nucleic acid)
guide: B1 guide with T60C, C62T, A65G, G67A, A69G, A74C, T84G
modifications: listed as DNA, chemistry not fully specified
B30: cr023 (nucleic acid)
guide: B1 guide with A8G, T60C, C62T, G67A, A69G
modifications: listed as DNA, chemistry not fully specified
B31: cr258 (nucleic acid)
guide: B1 guide with T49A, T60C, C62T, G67A, A69G
modifications: listed as DNA, chemistry not fully specified
B32: cr152 (nucleic acid)
guide: B1 guide with T60C, C62T, G67A, A69G, G72A, C73A, G85T, C86T
modifications: listed as DNA, chemistry not fully specified
B33: cr478 (nucleic acid)
guide: B1 guide with A28G, T60C, C62T, G67A, A69G
modifications: listed as DNA, chemistry not fully specified
B34: cr195 (nucleic acid)
guide: B1 guide with T60C, C62T, A64C, G67A, A69G, G79T
modifications: listed as DNA, chemistry not fully specified
B35: cr698 (nucleic acid)
guide: B1 guide with G29A, T54A, T60C, C62T, A64T, G67A, A69G
modifications: listed as DNA, chemistry not fully specified
B36: cr932 (nucleic acid)
guide: B1 guide with C30T, T60C, C62T, G67A, A69G
modifications: listed as DNA, chemistry not fully specified
B37: cr893 (nucleic acid)
guide: B1 guide with T60C, C62T, G67A, A69G, C86T
modifications: listed as DNA, chemistry not fully specified
B38: cr669 (nucleic acid)
guide: B1 guide with T60C, C62T, G67A, A69G, G79A
modifications: listed as DNA, chemistry not fully specified
B39: cr995: original, un-modified sgRNA constant region sequence (nucleic acid)
guide: B1 guide with T60C, C62T, G67A, A69G
modifications: listed as DNA, chemistry not fully specified
B40: cr172 (nucleic acid)
guide: B1 guide with A47T, T60C, C62T, A64T, G67A, A69G
modifications: listed as DNA, chemistry not fully specified
B41: cr269 (nucleic acid)
guide: B1 guide with T60C, C62T, G67A, A69G, G72C, C73A, G85T, C86G
modifications: listed as DNA, chemistry not fully specified

Tested on: K562 CRISPRi cells
Assay: Constant region variant library pooled growth screen, K562
Assay type: cell-based, human
Settings: sgRNA constant region variants; activity relative to the original, un-modified constant region cr995
How it was run: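 Pooled library transduced into K562 CRISPRi cells in duplicate, puromycin-selected, grown at >2000× coverage and sampled after 4 to 8 days. Phenotypes per targeting sequence:constant region pair were normalized to the unmodified-scaffold pairing to give relative activity.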

Compared with B1, B2 is lower in Mean relative activity: 1.07 for the first, 1.069 for the second.

In the case of B3, the Mean relative activity is reported as 1.072.

Same assay, conditions: sgRNA constant region variants; activity relative to the un-modified constant region cr995

Compared with B4, B5 is higher in Mean relative activity: 0.9852 for the first, 0.9853 for the second.

First: B6
Second: B7
The Mean relative activity of the first is higher: 0.9849 for the first, 0.9847 for the second.

Same assay, conditions: sgRNA constant region variants; relative to the original, un-modified constant region cr995 (= 1)

Going from B8 to B9, the Mean relative activity falls from 1.002 to 0.9918.

First: B10
Second: B11
The Mean relative activity of the first is lower: 0.9864 for the first, 0.9925 for the second.

First: B12
Second: B13
The Mean relative activity of the first is higher: 0.9997 for the first, 0.9885 for the second.

Compared with B14, B15 is higher in Mean relative activity: 0.992 for the first, 0.9968 for the second.

Going from B16 to B17, the Mean relative activity falls from 0.9979 to 0.9907.

First: B18
Second: B19
The Mean relative activity of the first is higher: 0.9991 for the first, 0.9912 for the second.

Compared with B20, B21 is higher in Mean relative activity: 0.9903 for the first, 0.9999 for the second.

Compared with B22, B23 is lower in Mean relative activity: 0.9983 for the first, 0.9873 for the second.

First: B24
Second: B25
The Mean relative activity of the first is higher: 0.996 for the first, 0.9955 for the second.

Going from B26 to B27, the Mean relative activity rises from 0.9906 to 0.9926.

First: B28
Second: B29
The Mean relative activity of the first is lower: 0.9895 for the first, 1.001 for the second.

First: B30
Second: B31
The Mean relative activity of the first is higher: 0.9917 for the first, 0.9863 for the second.

First: B32
Second: B33
The Mean relative activity of the first is higher: 0.9971 for the first, 0.9898 for the second.

Going from B34 to B35, the Mean relative activity falls from 0.9986 to 0.9956.

Going from B36 to B37, the Mean relative activity falls from 0.9947 to 0.9932.

Compared with B38, B39 is higher in Mean relative activity: 0.9881 for the first, 1 for the second.

First: B40
Second: B41
The Mean relative activity of the first is higher: 0.9996 for the first, 0.9979 for the second.
